Legend:
Test in all cases: cell-based or functional assay
[1] = target: Bacillus subtilis wild type xylanase A (Bacillus subtilis) (UniProt P18429)
[2] = target: Bacillus subtilis xylanase A mutant D11F/G34D (Bacillus subtilis) (UniProt P18429)
[3] = target: Bacillus subtilis xylanase A mutant D11F/R122D (Bacillus subtilis) (UniProt P18429)
[4] = target: Bacillus subtilis xylanase A mutant D11N (Bacillus subtilis) (UniProt P18429)
[5] = target: Bacillus subtilis xylanase A mutant D11S (Bacillus subtilis) (UniProt P18429)
[6] = target: Bacillus subtilis xylanase A mutant D11W (Bacillus subtilis) (UniProt P18429)
[7] = target: Bacillus subtilis xylanase A mutant D121N (Bacillus subtilis) (UniProt P18429)
[8] = target: Bacillus subtilis xylanase A mutant G120K (Bacillus subtilis) (UniProt P18429)
[9] = target: Bacillus subtilis xylanase A mutant G120N (Bacillus subtilis) (UniProt P18429)
[10] = target: Bacillus subtilis xylanase A mutant G120Y (Bacillus subtilis) (UniProt P18429)
[11] = target: Bacillus subtilis xylanase A mutant G34T (Bacillus subtilis) (UniProt P18429)
[12] = target: Bacillus subtilis xylanase A mutant I15K (Bacillus subtilis) (UniProt P18429)
[13] = target: Bacillus subtilis xylanase A mutant N114K (Bacillus subtilis) (UniProt P18429)
[14] = target: Bacillus subtilis xylanase A mutant N17Y (Bacillus subtilis) (UniProt P18429)
[15] = target: Bacillus subtilis xylanase A mutant N29D (Bacillus subtilis) (UniProt P18429)
[16] = target: Bacillus subtilis xylanase A mutant N29Y (Bacillus subtilis) (UniProt P18429)
[17] = target: Bacillus subtilis xylanase A mutant N32K (Bacillus subtilis) (UniProt P18429)
[18] = target: Bacillus subtilis xylanase A mutant Q175E (Bacillus subtilis) (UniProt P18429)
[19] = target: Bacillus subtilis xylanase A mutant Q175L (Bacillus subtilis) (UniProt P18429)
[20] = target: Bacillus subtilis xylanase A mutant R122D (Bacillus subtilis) (UniProt P18429)
[21] = target: Bacillus subtilis xylanase A mutant S31K (Bacillus subtilis) (UniProt P18429)
[22] = target: Bacillus subtilis xylanase A mutant S31Y (Bacillus subtilis) (UniProt P18429)
[23] = target: Bacillus subtilis xylanase A mutant T123K (Bacillus subtilis) (UniProt P18429)
[24] = target: Bacillus subtilis xylanase A mutant Y113A (Bacillus subtilis) (UniProt P18429)
[25] = target: Bacillus subtilis xylanase A mutant Y113D (Bacillus subtilis) (UniProt P18429)
[26] = target: Thermomyces lanuginosus wildtype xylanase A (Thermomyces lanuginosus) (UniProt O43097)
[27] = target: Thermomyces lanuginosus xylanase A mutant D19F (Thermomyces lanuginosus) (UniProt O43097)

Relative inhibition, % at 1, 26 XIU/ml [1]: 77%
Relative inhibition, % at 3, 15 XIU/ml [1]: 48%
Relative inhibition, % at 6, 3 XIU/ml [1]: 29%
Relative inhibition, % at 12, 6 XIU/ml [1]: 23%
Relative inhibition, % at 1, 26 XIU/ml [2]: 104%
Relative inhibition, % at 3, 15 XIU/ml [2]: 106%
Relative inhibition, % at 6, 3 XIU/ml [2]: 103%
Relative inhibition, % at 12, 6 XIU/ml [2]: 104%
Relative inhibition, % at 1, 26 XIU/ml [3]: 109%
Relative inhibition, % at 3, 15 XIU/ml [3]: 111%
Relative inhibition, % at 6, 3 XIU/ml [3]: 110%
Relative inhibition, % at 12, 6 XIU/ml [3]: 109%
Relative inhibition, % at 1, 26 XIU/ml [4]: 93%
Relative inhibition, % at 3, 15 XIU/ml [4]: 72%
Relative inhibition, % at 6, 3 XIU/ml [4]: 53%
Relative inhibition, % at 12, 6 XIU/ml [4]: 32%
Relative inhibition, % at 1, 26 XIU/ml [5]: 98%
Relative inhibition, % at 3, 15 XIU/ml [5]: 81%
Relative inhibition, % at 6, 3 XIU/ml [5]: 60%
Relative inhibition, % at 12, 6 XIU/ml [5]: 38%
Relative inhibition, % at 1, 26 XIU/ml [6]: 101%
Relative inhibition, % at 3, 15 XIU/ml [6]: 88%
Relative inhibition, % at 6, 3 XIU/ml [6]: 70%
Relative inhibition, % at 12, 6 XIU/ml [6]: 50%
Relative inhibition, % at 1, 26 XIU/ml [7]: 80%
Relative inhibition, % at 3, 15 XIU/ml [7]: 36%
Relative inhibition, % at 6, 3 XIU/ml [7]: 16%
Relative inhibition, % at 12, 6 XIU/ml [7]: 14%
Relative inhibition, % at 1, 26 XIU/ml [8]: 85%
Relative inhibition, % at 3, 15 XIU/ml [8]: 52%
Relative inhibition, % at 6, 3 XIU/ml [8]: 29%
Relative inhibition, % at 12, 6 XIU/ml [8]: 22%
Relative inhibition, % at 1, 26 XIU/ml [9]: 84%
Relative inhibition, % at 3, 15 XIU/ml [9]: 49%
Relative inhibition, % at 6, 3 XIU/ml [9]: 29%
Relative inhibition, % at 12, 6 XIU/ml [9]: 23%
Relative inhibition, % at 1, 26 XIU/ml [10]: 81%
Relative inhibition, % at 3, 15 XIU/ml [10]: 40%
Relative inhibition, % at 6, 3 XIU/ml [10]: 18%
Relative inhibition, % at 12, 6 XIU/ml [10]: 16%
Relative inhibition, % at 1, 26 XIU/ml [11]: 99%
Relative inhibition, % at 3, 15 XIU/ml [11]: 99%
Relative inhibition, % at 6, 3 XIU/ml [11]: 93%
Relative inhibition, % at 12, 6 XIU/ml [11]: 86%
Relative inhibition, % at 1, 26 XIU/ml [12]: 84%
Relative inhibition, % at 3, 15 XIU/ml [12]: 47%
Relative inhibition, % at 6, 3 XIU/ml [12]: 28%
Relative inhibition, % at 12, 6 XIU/ml [12]: 23%
Relative inhibition, % at 1, 26 XIU/ml [13]: 87%
Relative inhibition, % at 3, 15 XIU/ml [13]: 56%
Relative inhibition, % at 6, 3 XIU/ml [13]: 33%
Relative inhibition, % at 12, 6 XIU/ml [13]: 24%
Relative inhibition, % at 1, 26 XIU/ml [14]: 79%
Relative inhibition, % at 3, 15 XIU/ml [14]: 42%
Relative inhibition, % at 6, 3 XIU/ml [14]: 23%
Relative inhibition, % at 12, 6 XIU/ml [14]: 19%
Relative inhibition, % at 1, 26 XIU/ml [15]: 74%
Relative inhibition, % at 3, 15 XIU/ml [15]: 44%
Relative inhibition, % at 6, 3 XIU/ml [15]: 26%
Relative inhibition, % at 12, 6 XIU/ml [15]: 20%
Relative inhibition, % at 1, 26 XIU/ml [16]: 85%
Relative inhibition, % at 3, 15 XIU/ml [16]: 49%
Relative inhibition, % at 6, 3 XIU/ml [16]: 30%
Relative inhibition, % at 12, 6 XIU/ml [16]: 24%
Relative inhibition, % at 1, 26 XIU/ml [17]: 82%
Relative inhibition, % at 3, 15 XIU/ml [17]: 42%
Relative inhibition, % at 6, 3 XIU/ml [17]: 19%
Relative inhibition, % at 12, 6 XIU/ml [17]: 14%
Relative inhibition, % at 1, 26 XIU/ml [18]: 87%
Relative inhibition, % at 3, 15 XIU/ml [18]: 59%
Relative inhibition, % at 6, 3 XIU/ml [18]: 40%
Relative inhibition, % at 12, 6 XIU/ml [18]: 31%
Relative inhibition, % at 1, 26 XIU/ml [19]: 78%
Relative inhibition, % at 3, 15 XIU/ml [19]: 42%
Relative inhibition, % at 6, 3 XIU/ml [19]: 25%
Relative inhibition, % at 12, 6 XIU/ml [19]: 23%
Relative inhibition, % at 1, 26 XIU/ml [20]: 85%
Relative inhibition, % at 3, 15 XIU/ml [20]: 59%
Relative inhibition, % at 6, 3 XIU/ml [20]: 41%
Relative inhibition, % at 12, 6 XIU/ml [20]: 28%
Relative inhibition, % at 1, 26 XIU/ml [21]: 77%
Relative inhibition, % at 3, 15 XIU/ml [21]: 42%
Relative inhibition, % at 6, 3 XIU/ml [21]: 23%
Relative inhibition, % at 12, 6 XIU/ml [21]: 23%
Relative inhibition, % at 1, 26 XIU/ml [22]: 83%
Relative inhibition, % at 3, 15 XIU/ml [22]: 50%
Relative inhibition, % at 6, 3 XIU/ml [22]: 27%
Relative inhibition, % at 12, 6 XIU/ml [22]: 22%
Relative inhibition, % at 1, 26 XIU/ml [23]: 80%
Relative inhibition, % at 3, 15 XIU/ml [23]: 46%
Relative inhibition, % at 6, 3 XIU/ml [23]: 30%
Relative inhibition, % at 12, 6 XIU/ml [23]: 25%
Relative inhibition, % at 1, 26 XIU/ml [24]: 96%
Relative inhibition, % at 3, 15 XIU/ml [24]: 80%
Relative inhibition, % at 6, 3 XIU/ml [24]: 62%
Relative inhibition, % at 12, 6 XIU/ml [24]: 43%
Relative inhibition, % at 1, 26 XIU/ml [25]: 96%
Relative inhibition, % at 3, 15 XIU/ml [25]: 81%
Relative inhibition, % at 6, 3 XIU/ml [25]: 63%
Relative inhibition, % at 12, 6 XIU/ml [25]: 45%
Relative inhibition, % at 1, 26 XIU/ml [26]: 45%
Relative inhibition, % at 3, 15 XIU/ml [26]: 24%
Relative inhibition, % at 6, 3 XIU/ml [26]: 17%
Relative inhibition, % at 12, 6 XIU/ml [26]: 14%
Relative inhibition, % at 1, 26 XIU/ml [27]: 73%
Relative inhibition, % at 3, 15 XIU/ml [27]: 38%
Relative inhibition, % at 6, 3 XIU/ml [27]: 24%
Relative inhibition, % at 12, 6 XIU/ml [27]: 20%
Substance: wheat endogenous xylanase inhibitor

Reference: patent publication US20030180895A1
